± gives the uncertainty stated by the source.
B1: Pyruvate dehydrogenase protein X component, mitochondrial, residues 181 to 227; numbered along this chain, O00330 (parent)
chain: RFRLSPAARNILEKHSLDASQGTATGPRGIFTKEDALKLVQLKQTGK

Variants of: B1
Test: abundance fitness (aPCA) (normalised: wild type 0, dead -1); higher = more abundant; growth selection in yeast, the domain comes from the species named
Conditions: Homo sapiens

| Variant | abundance fitness |
| --- | --- |
| RFRLSPAARNFLEKHSLDASQGTATGPRGIFTKEDALKLVQLKQTGK | -0.424 ± 0.14 |
| RFRLSPAARNGLEKHSLDASQGTATGPRGIFTKEDALKLVQLKQTGK | -0.409 ± 0.055 |
| RFRLSPAARNHLEKHSLDASQGTATGPRGIFTKEDALKLVQLKQTGK | -0.369 ± 0.11 |
| RFRLSPAARNKLEKHSLDASQGTATGPRGIFTKEDALKLVQLKQTGK | -0.419 ± 0.087 |
| RFRLSPAARNLLEKHSLDASQGTATGPRGIFTKEDALKLVQLKQTGK | -0.316 ± 0.066 |
| RFRLSPAARNMLEKHSLDASQGTATGPRGIFTKEDALKLVQLKQTGK | -0.52 ± 0.06 |
| RFRLSPAARNNLEKHSLDASQGTATGPRGIFTKEDALKLVQLKQTGK | -0.194 ± 0.1 |
| RFRLSPAARNPLEKHSLDASQGTATGPRGIFTKEDALKLVQLKQTGK | -0.383 ± 0.15 |
| RFRLSPAARNQLEKHSLDASQGTATGPRGIFTKEDALKLVQLKQTGK | -0.469 ± 0.095 |
| RFRLSPAARNRLEKHSLDASQGTATGPRGIFTKEDALKLVQLKQTGK | -0.397 ± 0.054 |
| RFRLSPAARNSLEKHSLDASQGTATGPRGIFTKEDALKLVQLKQTGK | -0.436 ± 0.057 |
| RFRLSPAARNTLEKHSLDASQGTATGPRGIFTKEDALKLVQLKQTGK | -0.532 ± 0.08 |
| RFRLSPAARNVLEKHSLDASQGTATGPRGIFTKEDALKLVQLKQTGK | -0.314 ± 0.053 |
| RFRLSPAARNWLEKHSLDASQGTATGPRGIFTKEDALKLVQLKQTGK | -0.786 ± 0.092 |
| RFRLSPAARNIAEKHSLDASQGTATGPRGIFTKEDALKLVQLKQTGK | -0.317 ± 0.048 |
| RFRLSPAARNICEKHSLDASQGTATGPRGIFTKEDALKLVQLKQTGK | -0.019 ± 0.067 |
| RFRLSPAARNIDEKHSLDASQGTATGPRGIFTKEDALKLVQLKQTGK | 0.018 ± 0.076 |
| RFRLSPAARNIFEKHSLDASQGTATGPRGIFTKEDALKLVQLKQTGK | -0.584 ± 0.13 |
| RFRLSPAARNIGEKHSLDASQGTATGPRGIFTKEDALKLVQLKQTGK | -0.332 ± 0.048 |
| RFRLSPAARNIHEKHSLDASQGTATGPRGIFTKEDALKLVQLKQTGK | -0.504 ± 0.11 |
| RFRLSPAARNIIEKHSLDASQGTATGPRGIFTKEDALKLVQLKQTGK | -0.121 ± 0.062 |
| RFRLSPAARNIKEKHSLDASQGTATGPRGIFTKEDALKLVQLKQTGK | -0.481 ± 0.11 |
| RFRLSPAARNIMEKHSLDASQGTATGPRGIFTKEDALKLVQLKQTGK | -0.263 ± 0.074 |
| RFRLSPAARNINEKHSLDASQGTATGPRGIFTKEDALKLVQLKQTGK | -0.319 ± 0.086 |
| RFRLSPAARNIPEKHSLDASQGTATGPRGIFTKEDALKLVQLKQTGK | -0.073 ± 0.062 |
| RFRLSPAARNIQEKHSLDASQGTATGPRGIFTKEDALKLVQLKQTGK | -0.199 ± 0.061 |
| RFRLSPAARNIREKHSLDASQGTATGPRGIFTKEDALKLVQLKQTGK | -0.422 ± 0.051 |
| RFRLSPAARNISEKHSLDASQGTATGPRGIFTKEDALKLVQLKQTGK | -0.361 ± 0.053 |

| Variant | abundance fitness |
| --- | --- |
| RFRLSPAARNITEKHSLDASQGTATGPRGIFTKEDALKLVQLKQTGK | -0.181 ± 0.057 |
| RFRLSPAARNIWEKHSLDASQGTATGPRGIFTKEDALKLVQLKQTGK | -0.765 ± 0.11 |
| RFRLSPAARNIYEKHSLDASQGTATGPRGIFTKEDALKLVQLKQTGK | -1.16 ± 0.3 |
| RFRLSPAARNILAKHSLDASQGTATGPRGIFTKEDALKLVQLKQTGK | -0.255 ± 0.063 |
| RFRLSPAARNILCKHSLDASQGTATGPRGIFTKEDALKLVQLKQTGK | -0.441 ± 0.052 |
| RFRLSPAARNILDKHSLDASQGTATGPRGIFTKEDALKLVQLKQTGK | -0.079 ± 0.058 |
| RFRLSPAARNILFKHSLDASQGTATGPRGIFTKEDALKLVQLKQTGK | -0.612 ± 0.082 |
| RFRLSPAARNILGKHSLDASQGTATGPRGIFTKEDALKLVQLKQTGK | -0.387 ± 0.054 |
| RFRLSPAARNILHKHSLDASQGTATGPRGIFTKEDALKLVQLKQTGK | -0.3 ± 0.1 |
| RFRLSPAARNILIKHSLDASQGTATGPRGIFTKEDALKLVQLKQTGK | -0.224 ± 0.096 |
| RFRLSPAARNILKKHSLDASQGTATGPRGIFTKEDALKLVQLKQTGK | -0.097 ± 0.094 |
| RFRLSPAARNILLKHSLDASQGTATGPRGIFTKEDALKLVQLKQTGK | -0.225 ± 0.047 |
| RFRLSPAARNILMKHSLDASQGTATGPRGIFTKEDALKLVQLKQTGK | -0.661 ± 0.13 |
| RFRLSPAARNILNKHSLDASQGTATGPRGIFTKEDALKLVQLKQTGK | 0.1 ± 0.11 |
| RFRLSPAARNILPKHSLDASQGTATGPRGIFTKEDALKLVQLKQTGK | -0.564 ± 0.11 |
| RFRLSPAARNILQKHSLDASQGTATGPRGIFTKEDALKLVQLKQTGK | -0.215 ± 0.1 |
| RFRLSPAARNILRKHSLDASQGTATGPRGIFTKEDALKLVQLKQTGK | -0.242 ± 0.043 |
| RFRLSPAARNILSKHSLDASQGTATGPRGIFTKEDALKLVQLKQTGK | -0.348 ± 0.057 |
| RFRLSPAARNILTKHSLDASQGTATGPRGIFTKEDALKLVQLKQTGK | -0.428 ± 0.055 |
| RFRLSPAARNILVKHSLDASQGTATGPRGIFTKEDALKLVQLKQTGK | -0.391 ± 0.046 |
| RFRLSPAARNILWKHSLDASQGTATGPRGIFTKEDALKLVQLKQTGK | -0.841 ± 0.11 |
| RFRLSPAARNILEAHSLDASQGTATGPRGIFTKEDALKLVQLKQTGK | 0.008 ± 0.064 |
| RFRLSPAARNILECHSLDASQGTATGPRGIFTKEDALKLVQLKQTGK | -0.306 ± 0.056 |
| RFRLSPAARNILEDHSLDASQGTATGPRGIFTKEDALKLVQLKQTGK | -0.172 ± 0.058 |
| RFRLSPAARNILEEHSLDASQGTATGPRGIFTKEDALKLVQLKQTGK | 0.19 ± 0.067 |
| RFRLSPAARNILEFHSLDASQGTATGPRGIFTKEDALKLVQLKQTGK | -0.146 ± 0.11 |
| RFRLSPAARNILEGHSLDASQGTATGPRGIFTKEDALKLVQLKQTGK | -0.142 ± 0.044 |

From the Human Domainome abundance scans (Beltran et al. 2025)
